Test results: PMC5477644

Assays:
6His-Ska1/Ska2/Ska3 (WT) = 6His-Ska1/Ska2/Ska3 (WT) (UniProt Q96BD8); experiment: SEC + other: velocity sedimentation on a sucrose gradient
tubulin (microtubules) = experiment: TIRF, tracking of depolymerizing microtubule ends; conditions: reference: SKA wild type complex; sites S34

Ska3 (C13orf3, RAMA1), sequence (Q8IX90 whole entry, looked up, stated change not applied): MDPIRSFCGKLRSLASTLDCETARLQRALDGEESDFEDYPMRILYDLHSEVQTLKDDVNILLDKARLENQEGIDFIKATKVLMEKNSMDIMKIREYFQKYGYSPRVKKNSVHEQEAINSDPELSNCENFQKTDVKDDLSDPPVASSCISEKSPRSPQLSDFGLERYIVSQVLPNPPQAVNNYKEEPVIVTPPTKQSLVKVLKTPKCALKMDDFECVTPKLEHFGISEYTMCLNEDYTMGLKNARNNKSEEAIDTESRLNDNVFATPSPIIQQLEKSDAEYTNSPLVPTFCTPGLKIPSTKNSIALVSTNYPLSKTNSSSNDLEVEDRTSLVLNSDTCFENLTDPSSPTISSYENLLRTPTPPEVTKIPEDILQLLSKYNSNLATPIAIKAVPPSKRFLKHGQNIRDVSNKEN
6His-Ska1/Ska2/Ska3 (WT) (from UniProt Q96BD8 1-255; Q8WVK7 1-121; Q8IX90 1-412) (complex), sequence (Q96BD8 whole entry): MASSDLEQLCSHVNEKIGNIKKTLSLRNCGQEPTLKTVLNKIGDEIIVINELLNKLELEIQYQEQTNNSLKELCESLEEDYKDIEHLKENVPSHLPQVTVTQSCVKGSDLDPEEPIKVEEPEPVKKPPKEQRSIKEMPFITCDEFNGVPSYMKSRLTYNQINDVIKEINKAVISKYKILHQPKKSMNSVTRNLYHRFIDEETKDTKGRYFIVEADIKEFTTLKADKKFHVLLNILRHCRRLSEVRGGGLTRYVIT
6His-Ska1/Ska2/Ska3 (WT) (from UniProt Q96BD8 1-255; Q8WVK7 1-121; Q8IX90 1-412) (complex), sequence (Q8WVK7 whole entry): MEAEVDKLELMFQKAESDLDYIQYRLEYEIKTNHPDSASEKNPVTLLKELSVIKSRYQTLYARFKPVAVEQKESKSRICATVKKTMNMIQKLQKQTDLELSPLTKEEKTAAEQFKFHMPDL
6His-Ska1/Ska2/Ska3 (WT) (from UniProt Q96BD8 1-255; Q8WVK7 1-121; Q8IX90 1-412) (complex), sequence (Q8IX90 whole entry): as the sequence (Q8IX90 whole entry, looked up, stated change not applied) above

stoichiometry N (6His-Ska1/Ska2/Ska3 (WT)) | other: median post/pre-conversion intensity ratio (tubulin (microtubules)) | Substance
2 |  | 6His-Ska1/Ska2/Ska3 (WT) (from UniProt Q96BD8 1-255; Q8WVK7 1-121; Q8IX90 1-412) (complex)
 | same; reference 1.01 | Ska3 (C13orf3, RAMA1) (from UniProt Q8IX90) SKA S34A complex
